Experimental data as given in patent publication US20160177307.

Tests used:
[1] = molecular target: PDGF-BB (platelet-derived growth factor BB) (Homo sapiens) (UniProt P01127); test: filter
PDGF-AB = PDGF-AB (UniProt P04085+P01127); test: filter
[2] = test system: T1, VEGF-164 (Rattus norvegicus), P16612-2; test: filter; settings: P=Nap-dU
T1 sequence: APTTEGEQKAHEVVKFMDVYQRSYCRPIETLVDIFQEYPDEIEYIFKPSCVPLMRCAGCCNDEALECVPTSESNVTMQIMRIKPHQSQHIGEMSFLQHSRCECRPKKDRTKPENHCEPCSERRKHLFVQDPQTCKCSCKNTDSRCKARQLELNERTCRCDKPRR

[3] = test system: T2, VEGF-121 (Homo sapiens), P15692-9; test: filter
T2 sequence: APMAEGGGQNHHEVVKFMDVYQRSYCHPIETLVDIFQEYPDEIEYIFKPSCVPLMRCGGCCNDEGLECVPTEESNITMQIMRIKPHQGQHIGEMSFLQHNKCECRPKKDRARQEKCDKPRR

[4] = test system: T3, VEGF-165 (Homo sapiens), P15692-4; test: filter
T3 sequence: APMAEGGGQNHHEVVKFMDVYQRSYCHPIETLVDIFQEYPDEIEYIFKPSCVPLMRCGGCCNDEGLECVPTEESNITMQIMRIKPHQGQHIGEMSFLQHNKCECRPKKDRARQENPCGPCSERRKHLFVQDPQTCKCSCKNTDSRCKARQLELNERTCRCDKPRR

[5] = test system: T2, VEGF-121 (Homo sapiens), P15692-9; test: competition; settings: Nap-dU, 2'-OMe; head-to-tail dimer, no linker; VEGF isoform not given
[6] = molecular target: PDGF-BB (platelet-derived growth factor BB) (Homo sapiens) (UniProt P01127); test: cell_activity; settings: NapdU at P; 2'-OMe 1,4,6,7,14,15,16,18,20,21; PDGFRb phosphorylation, Hs27
[7] = test system: T2, VEGF-121 (Homo sapiens), P15692-9; test: cell_activity; settings: NapdU at P; 2'-OMe 6,9,12,15,17,18,22,28,29; VEGFR2 phosphorylation, HUVEC
rVEGF164, P16612-2 = test system: T4, rVEGF164, P16612-2; test: filter; settings: all P are NapdU, rest DNA; SB18T, 37 C
T4 sequence: T1 sequence

[8] = Bn-dU, Heg linker, 2'-OMe A3, A11, A19, A21, G24

PDGF-AB, sequence (P01127 82-190, chain 2 of 2, other chains not shown): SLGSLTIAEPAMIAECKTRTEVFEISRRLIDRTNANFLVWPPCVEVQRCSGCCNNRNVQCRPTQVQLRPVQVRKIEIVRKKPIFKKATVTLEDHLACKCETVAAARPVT
PDGF-BB (platelet-derived growth factor BB) (Homo sapiens), sequence (P01127 82-190): as the sequence (P01127 82-190, chain 2 of 2, other chains not shown) above

For TTACGTTACACGCGTTTATAGCG [4149-8_273], the Kd [1, 8] was 61.4 pM and the Kd (PDGF-AB; [8]) was 189 pM.
“CCGTTCAAGTGCTTGTAGGATTTAAATGGA [4867-31_59]” gave a Kd [2] of 200 pM, a Kd ([3]; NapdU at P) of 140 pM and a Kd ([4]; NapdU at P) of 160 pM.
In the case of “CAGCCGTTCAAGTGCTTGTAGGATTTAAATGGAA [4867-31_36]”, the Kd [2] is reported as 60 pM, the Kd ([3]; P=Nap-dU) is reported as 390 pM and the Kd ([4]; P=Nap-dU) is reported as 110 pM.
Work on “CCGTTCAAGTGCTTGTAGGATTTAAATGGCCGTTCAAGTGCTTGTAGGATTTAAATGG [4867-31_395]” yielded a Ki [5] of 6.8 pM.
“TCAATCAGCCGTTCAAGTGCTTGTAGGATTTAAATGG [4867-31_23]” showed a Kd [2] of 660 pM, a Kd ([3]; NapdU at P) of 1300 pM and a Kd ([4]; NapdU at P) of 300 pM.
In the case of CGACAGCATGTATGCACATCT [5169-4_84], the IC50 [6] is reported as 3300 pM and the Kd ([1]; NapdU at P, 2'-OMe 1,4,6,7,14,15,16,18,20,21) is reported as 5.3 pM.
For “TCAATCAGCCGTTCAAGTGCTTGTAGGATTTAAATGGA [4867-31_22]”, the Kd [2] was 540 pM, the Kd ([3]; NapdU at P) was 820 pM and the Kd ([4]; NapdU at P) was 260 pM.
Work on “ATCAGCCGTTCAAGTGCTTGTAGGATTTAAATGGAA [4867-31_34]” yielded a Kd [2] of 50 pM, a Kd ([3]; P=Nap-dU) of 470 pM and a Kd ([4]; P=Nap-dU) of 350 pM.
For “TTACGTTACACGCGTTTATAGCGCCGTTCAAGTGCTTTAGATTTAAATG [4149-8_319]”, the Kd ([1]; PDGF-2Heg-VEGF, NapdU, BndU) was 24.2 pM, the Kd ([3]; PDGF-2Heg-VEGF, NapdU, BndU) was 1070 pM and the Kd (PDGF-AB; PDGF-2Heg-VEGF, NapdU, BndU) was 30.2 pM. The Kd ([4]; Bn-dU, Nap-dU, C3, 2 Heg linker, 2'-OMe, VEGF) was 125 pM.
Work on “TTACGTTACCGCGTTTATAGCGCCGTTCAAGTGCTTGTAGGATTTAAATGG [4149-8_401 (PDGF_379-HHH-VEGF_192)]” yielded a Kd ([1]; Z BndU, P NapdU, M MBndU, superscript 1 2'-OMe, C3 spacer, Heg linkers, 5'-amine, Table 20 gives 1.51E-11) of 5.6 pM, a Kd ([3]; Z BndU, P NapdU, M MBndU, superscript 1 2'-OMe, C3 spacer, Heg linkers, 5'-amine, Table 20 gives 3.74E-11) of 27 pM and a Kd (PDGF-AB; Z BndU, P NapdU, M MBndU, superscript 1 2'-OMe, C3 spacer, Heg linkers, 5'-amine) of 193 pM. For the same sequence, the Kd ([4]; Z BndU, P NapdU, M MBndU, superscript 1 2'-OMe, C3 spacer, Heg linkers, 5'-amine, Table 20 gives 2.77E-10) was 25 pM.
“CAATCAGCCGTTCAAGTGCTTGTAGGATTTAAATGGAAT [4867-31_26]” gave a Kd [2] of 70 pM, a Kd ([3]; P=Nap-dU) of 490 pM and a Kd ([4]; P=Nap-dU, SB18T, 37 C) of 75 pM.
“TTACGACTACGTTACACGCGTTTATAGC [4149-8_39]” showed a Kd ([1]; BndU at 1,2,8,12,13,21,22,23,25, rest DNA, SB18T, 37 C, Table 18 gives 87.5 pM) of 110 pM and a Kd (PDGF-AB; BndU at 1,2,8,12,13,21,22,23,25, rest DNA) of 47.6 pM.
“CCGTTCAAGTGCTTGTAGGATTTAAATGG [4867-31_192]” showed an IC50 [7] of 2100 pM, a Kd ([1]; NapdU at 4,5,10,13,14,16,21,23,27, 2'-OMe at C6,G9,C12,G15,A17,G18,G28,G29 and 2'-OMe-NapU22, 3'-inverted dT in Tables 26-27, specificity control, off-target PDGF-BB) of 57000 pM and a Kd ([3]; NapdU at 4,5,10,13,14,16,21,23,27, 2'-OMe at C6,G9,C12,G15,A17,G18,G28,G29 and 2'-OMe-NapU22, 3'-inverted dT in Tables 26-27, 3'-idT, Table 27 gives 3.1E-11, Table 21 2.3E-11) of 11 pM. It also gave a Kd ([4]; NapdU at 4,5,10,13,14,16,21,23,27, 2'-OMe at C6,G9,C12,G15,A17,G18,G28,G29 and 2'-OMe-NapU22, 3'-inverted dT in Tables 26-27, 5'-OH form) of 41 pM.
Work on “AGCCGTTCAAGTGCTTGTAGGATTTAAATGG [4867-31_51]” yielded a Kd [2] of 74 pM, a Kd ([1]; all P are NapdU, rest DNA, specificity control) of 126000 pM and a Kd ([3]; all P are NapdU, rest DNA, SB18T, 37 C, Table 18 gives 728 pM) of 200 pM. The Kd (PDGF-AB; P=Nap-dU) was 14800 pM, the Kd ([4]; P=Nap-dU, VEGF) was 196 pM and the Kd ([4]; all P are NapdU, rest DNA, SB18T, 37 C) was 110 pM.
Sequence “AGCCGTTCAAGTGCTTGTAGGATTTAAATGGAAT [4867-31_31]” has a Kd [2] of 120 pM, a Kd ([3]; P=Nap-dU) of 1000 pM and a Kd ([4]; P=Nap-dU) of 170 pM.
For “CAGCCGTTCAAGTGCTTGTAGGATTTAAA [4867-31_47]”, the Kd (rVEGF164, P16612-2) was 83000 pM.
